Here are results for 20 molecules from US20090203538A1 (INSTITUTE FOR ANTIBODIES, published 2009).

For experiment [1], the target named is T1, HER2 (Homo sapiens (Human), UniProt P04626 23-1255).
T1 construct: Native protein on cancer cell lines; also called erbB-2; ErbB2
The experiment in a line: antigen assigned by the filing's classifying and identification method; details for this clone not given.

Experiment [2] deals with T2, ALCAM (Activated leukocyte cell adhesion molecule) (Homo sapiens (Human), UniProt Q13740 28-583).
T2 construct: Native protein on cancer cell lines; also called CD166 antigen; CD166
T2 sequence: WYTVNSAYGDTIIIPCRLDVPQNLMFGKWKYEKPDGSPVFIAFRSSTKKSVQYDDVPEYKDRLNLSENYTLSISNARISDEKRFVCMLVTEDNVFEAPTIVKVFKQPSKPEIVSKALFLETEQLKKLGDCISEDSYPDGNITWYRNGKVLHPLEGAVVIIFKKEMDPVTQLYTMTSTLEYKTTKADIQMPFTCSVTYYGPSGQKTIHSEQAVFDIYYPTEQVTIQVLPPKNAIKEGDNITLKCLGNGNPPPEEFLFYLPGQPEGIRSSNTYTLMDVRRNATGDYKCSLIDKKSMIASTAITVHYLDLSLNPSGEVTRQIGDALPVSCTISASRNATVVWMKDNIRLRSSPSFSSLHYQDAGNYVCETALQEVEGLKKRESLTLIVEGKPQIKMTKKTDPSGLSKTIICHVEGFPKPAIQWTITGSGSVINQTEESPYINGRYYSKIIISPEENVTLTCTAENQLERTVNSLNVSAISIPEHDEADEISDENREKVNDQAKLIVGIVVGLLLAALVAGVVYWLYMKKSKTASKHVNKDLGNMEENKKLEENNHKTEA
The description is as above.

B1: 015-136 antibody (antibody, V domains shown)
VH: QVQLVQSGSELKKPGASVKVSCKASGYIFTRYGINWVRQAPGQGLEWMGWINTNTGNPTYAQGFTGRVVFSLDTSVSTAYLQISSLKAEDTAMYYCAISSGFGYYFDYWGQGTLVTVSR
VL: DIQMTQSPSSVSASVGDRVTITCRASQSISRWLAWYQQKPGKAPKFLIYAGSSLQSGVPSRFSGSGSGTDFTLTISSLQPEDFATYYCQQTNSFPLTFGGGTKVEIK
notes: Clone of the scFv-CL-cp3 phage library
As to B1, the binding result in experiment [1] is given as “binds”.

B2: 015-143 antibody (antibody, V domains shown)
VH: QVQLVQSGAEVKKPGASVKVSCKASGYTFTSYGISWVRQAPGQGLEWMGWISAYNGNTNYAQKLQGRVTMTTDTSTSTAYMELRSLRSDDTAVYYCARAFRDWGSLRDYWGQGTLVTVSR
VL: QSVLTQPPSVSAAPGQKVTISCSGSSSNIGNNYVSWYQQLPGTAPKLLIYDNNKRPSGIPDRFSGSKSGTSATLGITGLQTGDEADYYCGTWDSSLSAVVFGGGTKLTVLG
notes: as for B1
Turning to B2, in experiment [1], the binding result was “binds”.

B3: 062-101 antibody (antibody, V domains shown)
VH: QVQLVQSGAEVKKPGASVKVSCKASGYTFTSYYMHWVRQAPGQGLEWMGIINPSGGSTSYAQKFQGRVTMTRDTSTSTVYMELSSLRSEDTAVYYCARELSAATAFDIWGQGTMVTVSR
VL: ETTLTQSPFSVSASVGDRVTITCRASQYISRWLAWYQQRPGKAPKLLIYAAASLQSGVPSRFSGSGSGTDFTLTISSLQPEDFATYYCQQANSFPVTFGQGTRLEIK
notes: as for B1
B3: the binding result in experiment [2] is reported as “binds”.

B4: 086-032 antibody (antibody, V domains shown)
VH: QVQLVQSGSEVKKPGASVKVSCKTSGYIFTDYYMHWVRQAPGKGLEWMGWINPNSGGTYYAQKFHGRVTMTSDTSISTAYMELSSLRSDDTAIYYCAREDYDILTGYYPASGHGDYWGQGTLVTVSR
VL: QAVVTQEPSLTVSPGGTVTLTCASSTGAVTSGFLANWFQQKPGQTPRSLIYKTSNKHPWTPARFSGSLLGGKAALTLSGVQPEDEADYYCLLLSGGAWVFGGGTKLSVLG
notes: as for B1
As to B4, in experiment [1], the binding result was “binds”.

B5: 086-138 antibody (antibody, V domains shown)
VH: QVQLVQSGSEVKKPGASVKVSCKTSGYIFTDYYMHWVRQAPGKGLEWMGWINPNSGGTYYAQKFHGRVTMTSDTSISTAYMELSSLRSDDTAIYYCAREDYDILTGFYPASGHGDYWGQGTLVTVSR
VL: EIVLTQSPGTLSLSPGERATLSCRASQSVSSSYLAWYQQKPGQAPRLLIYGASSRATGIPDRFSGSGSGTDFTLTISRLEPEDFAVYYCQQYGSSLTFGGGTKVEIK
notes: as for B1
As to B5, in experiment [1], the binding result was “binds”.

B6: 084-103 antibody (antibody, V domains shown)
VH: QVQLVQSGAEVKKPGSSVKVSCKASGGTFSSYAISWVRQAPGQGLEWMGWMNPNSGNTGYAQKFQGRVTMTRNTSISTAYMELSSLRSEDTAVYYCARDVGIGVFDYWGQGTLVTVSR
VL: SYVLTQPPSVSVAPGKTARITCGGNNIGSKSVHWYQQKPGQAPVLVIYYDSDRPSGIPERFSGSNSGNTATLTISRVEAGDEADYYCQVWDSSSDHVVFGGGTKLTVLG
notes: as for B1
For B6, in experiment [2], the binding result is given as “binds”.

B7: 062-109 antibody (antibody, V domains shown)
VH: QVQLVQSGAEVKKPGASVKVSCKASGYTFTSYGISWVRQAPGQGLEWMGWISAYNGNTNYAQKLQGRVTMTTDTSTSTAYMELRSLRSDDTAVYYCARVGYYYYYGMDVWGQGTTVTVSR
VL: QSALTQPASVSGSPGQSITISCTGTSSDVGSYNLVSWYQQHPGKAPKLMIYEGSKRPSGVSNRFSGSKSGNTASLTISGLQAEDEADYYCSSYTSSSTWVFGGGTKLTVLG
In the case of B7, the binding result in experiment [2] is reported as “binds”.

B8: 015-044 antibody (antibody, V domains shown)
VH: QVQLQESGPGLVKPSETLSLTCTVSGGSISSSSYYWGWIRQPPGKGLEWIGSIYYSGSTYYNPSLKSRVTISVDTSKNQFSLKLSSVTAADTAVYYCAMRAYGSGSYDYWGQGTLVTVSR
VL: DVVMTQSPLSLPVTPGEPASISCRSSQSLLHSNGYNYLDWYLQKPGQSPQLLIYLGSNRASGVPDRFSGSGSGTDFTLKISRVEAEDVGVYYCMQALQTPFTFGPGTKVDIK
notes: as for B1
Regarding B8, in experiment [1], the binding result is given as “binds”.

B9: 075-024 antibody (antibody, V domains shown)
VH: QVQLVQSGAEVKKPGASVKVSCKASGYTFTSYGISWVRQAPGQGLEWMGWISAYNGNTNYAQKLQGRVTMTTDTSTSTAYMELRSLRSDDTAVYYCARGGAFDIWGQGTTVTVSR
VL: QSVLTQPPSVSGAPGQRVTISCTGSSSNIGAGYHVYWYQQLPGKAPKLLIYVNSNRPSGVPDRFSGSKSGTSASLAITGLQADDEADYYCQSYDSSLSGRVFGGGTKLTVLG
notes: as for B1
Take B9: the binding result in experiment [1] was “binds”.

B10: 029-143 antibody (antibody, V domains shown)
VH: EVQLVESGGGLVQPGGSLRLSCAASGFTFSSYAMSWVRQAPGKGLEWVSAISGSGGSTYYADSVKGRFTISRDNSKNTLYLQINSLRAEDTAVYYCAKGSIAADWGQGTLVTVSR
VL: SSELTQDPAVSVALGQTVRITCQGDSLRSYYASWYQQKPGQAPVLVIYGKNNRPSGIPDRFSGSSSGNTASLTITGAQAEDEADYYCNSRDSSGNVVFGGGTKLTVLG
notes: as for B1
For the molecule B10, in experiment [2], the binding result was “binds”.

B11: 015-102 antibody (antibody, V domains shown)
VH: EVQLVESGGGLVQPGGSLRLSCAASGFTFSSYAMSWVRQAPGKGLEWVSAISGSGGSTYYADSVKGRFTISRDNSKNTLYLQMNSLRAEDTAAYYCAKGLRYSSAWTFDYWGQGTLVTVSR
VL: QSALTQPASVSGSPGQSITISCTGTSSDVGGYNYVSWYQQHPGKAPKLMIYDVSNRPSGVSNRFSGSKSGNTASLTISGLQAEDEADYYCSSYTSSSTPVVFGGGTKLTVLG
notes: as for B1
For B11, the binding result in experiment [1] is “binds”.

B12: 053-216 antibody (antibody, V domains shown)
VH: EVQLVESGGGLIRPGGSLRLSCTASGFTFSSYTMNWVRQAPGKGLEWLSYISGGSGTKFYADSVKGRFTVSRDNAKNSLYLEMNSLRPEDTAVYYCALVSYSSPGFDYWGQGTLVTVSS
VL: SYELTQPPSVSVSPGQTASITCSGDKLGDKYVYWYQQKPGQSPILLIFQDSERPSGIPERFSGSNSGNTATLTISGTQAMDEADYYCQAWDSSAAVFGGGTKLTVLG
notes: as for B1
For B12, the binding result in experiment [1] is “binds”.

B13: 015-209 antibody (antibody, V domains shown)
VH: EVQLVESGAEVKKPGESLKISCKGSGYSFTSYWIGWVRQMPGKGLEWMGIIYPGDSDTRYSPSFQGQVTISADKSISTAYLQWSSLKASDTAMYYCARLAVGAYQYYFDYWGQGTLVTVSR
VL: QTVVTQEPSFSVSPGGTVTLTCGLSSGSVSTSYYPSWYQQTPGQAPRTLIYSTNTRSSGVPDRFSGSILGNKAALTITGAQADDESDYYCVLYMGSGISVFGGGTKLTVLG
notes: as for B1
Consider B13, for which, in experiment [1], the binding result is given as “binds”.

B14: 086-035 antibody (antibody, V domains shown)
VH: QVQLVQSGAEVKKPGESLKISCEGSGYTFTSYWIGWVRQMPGKDLEWMGIIYPGDSDTRYSPSFQGQVTISVDKSISTAYLQWSSLKASDTAMYYCARHDVVDGYNTGMDVWGQGTTVTVSR
VL: QTVVTQEPSFTVSPGGTVTLTCGLSSGSVSTSYYPSWYQQTPGQAPRTLISSTNTRSSGVPDRFSGSILGNRAALTITGAQADDESDYYCVLYMGSGIWVFGGGTKLTVLG
notes: as for B1
As to B14, the binding result in experiment [1] is recorded as “binds”.

B15: 086-182 antibody (antibody, V domains shown)
VH: QVQLVQSGAEVKKPGESLKISCKGSGYSFTSYWIGWVRQMPGKGLEWMGIIYPGDSDTRYSPSFQGQVTISADKSISTAYLQWSSLKASDTAMYYCARHGMTSGYVAHNDYWGQGTLVTVSR
VL: QTVVTQEPSFSVSPGGTVTLTCGLSSGSVSTSYYPSWYQQTPGQAPRTLIYSTNTRSSGVPDRFSGSILGNKAALTITGAQADDESDYYCVLYMGSGIWVFGGGTKLTVLG
notes: as for B1
As to B15, the binding result in experiment [1] is listed as “binds”.

B16: 086-036 antibody (antibody, V domains shown)
VH: QVQLVQSGAEVKKPGESLKISCKGSGYSFTSYWIGWVRQMPGKGLEWMGIIYPGDSDARYSPSFQGQVTISADKSISTAYLQWSSLKASDTAMYYCARLTGSSYYDSSGYSSYGMDVWGQGTTVTVSR
VL: QTVVTQEPSFSVSPGGTVTLTCGLSSGSVSTSYYPSWFQQTPGQAPRTLIYSTNTRSSGVPDRFSGSILGNKAALTITGAQADDESDYYCVLYMGSGISVFGGGTQLTVLG
notes: as for B1
In the case of B16, the binding result in experiment [1] was “binds”.

B17: 086-061 antibody (antibody, V domains shown)
VH: QVQLVQSGAEVKKPGESLKISCKGSGYSFTSYWIGWVRQMPGKGLEWMGIIYPGDSDTRYSPSFQGQVTISADKSISTAYLQWSSLKASDTAMYYCARHNSNYYYYYMDVWGKGTLVTVSR
VL: QTVVTQEPSFSVSPGGTVTLTCGLSSGSVSTSYYPSWYQQTPGQAPRTLIYSTNTRSSGVPDRFSGSILGNKAALTITGAQADDESDYYCVLYMGSGISVFGGGTKLTVLG
notes: as for B1
Take B17: the binding result in experiment [1] is “binds”.

B18: 039-016 antibody (antibody, V domains shown)
VH: EVQLVESGGNLVQPGGSLRLSCAASGFTFSRYWMTWVRQAPGKGLEWISSVSSSGSTIYYADSVKGRFTISRDNAKNSLYLQMNSLRVEDTAVYYCARDYWPGWYFDLWGRGTLVTVSR
VL: QAVLTQPSSLSASPGASASLTCTFRSDISVGSYRIYWYQQKPGSPPQFLLKYTSDSDKQQGSGVPSRFSGSKDVSANAGILLISGLQSEDEADYYCMTWHNTASVFGGGTKLAVLG
notes: as for B1
For the molecule B18, the binding result in experiment [1] is recorded as “binds”.

B19: 075-110 antibody (antibody, V domains shown)
VH: EVQLVESGGGLVQPGGSLRLSCSASGFTFSNYWMTWVRQAPGKGLEWISSISSSGSTIYYADSVKGRFTISRDNAKNSLYLQMNSLRVEDTAVYYCARDYWPGWYFDLWGRGTLVTVSR
VL: QAVLTQPSSLSASPGASASLTCTFRSDISVGSYRIYWYQQKPGSPPQFLLKYTSDSDKQQGSGVPSRFSGSKDVSANAGILLISGLQSEDEADYYCMTWHNTASVFGGGTKLAVLG
notes: as for B1
Regarding B19, the binding result in experiment [1] is recorded as “binds”.

B20: 045-134 antibody (antibody, V domains shown)
VH: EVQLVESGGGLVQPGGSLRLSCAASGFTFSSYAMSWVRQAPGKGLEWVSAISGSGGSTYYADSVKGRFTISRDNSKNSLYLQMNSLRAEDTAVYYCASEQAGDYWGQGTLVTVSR
VL: QSVLTQPPSASGTPGQRVTISCSGSSSNIGSNYVYWYQQLPGTAPKLLIYRNNQRPSGVPDRFAGSKSGTSATLGITGLQTGDEADYYCGTWDSSLSAGVFGGGTKLTVLG
notes: as for B1
With B20, the binding result in experiment [2] is on record as “binds”.
